Experiments:
[1] = substrate: Nc1nc2c(ncn2[C@@H]2O[C@H](COP(=O)(O)OP(=O)(O)OP(=O)(O)O)[C@@H](O)[C@H]2O)c(=O)[nH]1; test: Km determination with the GDP-MP assay; assay type: biochemical; conditions: other: GDP-MP substrates; mean of three independent replicates; pH 7.5
Description: (§1) All enzyme and substrate solution dilutions were prepared in assay buffer comprising 25 mM Tris-HCl (pH 7.5), 150 mM NaCl, 4 mM MgCl2, 0.01% (vol/vol) Tween 20, and 1 mM dithiothreitol in ultrapure water. Biochemical assays were performed in a 50-μl final assay volume using clear 384-well assay microplates (Greiner, catalog no. 781101) at room temperature. Unless stated otherwise, all reagent concentrations are written as final biochemical assay concentrations, and DMSO or compounds were added to assay plates using Echo acoustic dispensers (Labcyte). Reagent addition for high-throughput screening assays was performed using an Xrd-384 liquid dispenser (FluidX, UK) and a BioFill Solo/Xrd-384 16 channel resin nozzle (2.00 to 200 μl) tubing cartridge (FluidX, catalog no. 34-1005-S). Biochemical reactions were terminated by addition of 50 μl of BIOMOL Green (Enzo Life Sciences, catalog no. BML-AK111-1000) reagent, after which absorbance was measured following a 30-min incubation at room temperature. Absorbance measurements were performed at 650 nm using a PHERAStar microplate reader (BMG Labtech, Germany), and the data are represented as relative absorbance units (RAU). Linear and nonlinear regression was performed using the SigmaPlot 12.5 software, unless stated otherwise. […]

[2] = substrate: O=P(O)(O)O[C@H]1O[C@H](CO)[C@@H](O)[C@H](O)[C@@H]1O; test: Km determination with the GDP-MP assay; assay type: biochemical; conditions: other: GDP-MP substrates; mean of three independent replicates; pH 7.5
Description: as §1

[3] = substrate: O=P(O)(O)OC[C@H]1O[C@H](OP(=O)(O)O)[C@H](O)[C@@H](O)[C@@H]1O; test: Km determination with the PMM-GDP-MP assay; assay type: biochemical, Trypanosoma cruzi; conditions: other: PMM substrate and cofactor, mean of three independent replicates, pH 7.5
Description: (§2) All enzyme and substrate solution dilutions were prepared in assay buffer comprising 25 mM Tris-HCl (pH 7.5), 150 mM NaCl, 4 mM MgCl2, 0.01% (vol/vol) Tween 20, and 1 mM dithiothreitol in ultrapure water. Biochemical assays were performed in a 50-μl final assay volume using clear 384-well assay microplates (Greiner, catalog no. 781101) at room temperature. Unless stated otherwise, all reagent concentrations are written as final biochemical assay concentrations, and DMSO or compounds were added to assay plates using Echo acoustic dispensers (Labcyte). Reagent addition for high-throughput screening assays was performed using an Xrd-384 liquid dispenser (FluidX, UK) and a BioFill Solo/Xrd-384 16 channel resin nozzle (2.00 to 200 μl) tubing cartridge (FluidX, catalog no. 34-1005-S). Biochemical reactions were terminated by addition of 50 μl of BIOMOL Green (Enzo Life Sciences, catalog no. BML-AK111-1000) reagent, after which absorbance was measured following a 30-min incubation at room temperature. Absorbance measurements were performed at 650 nm using a PHERAStar microplate reader (BMG Labtech, Germany), and the data are represented as relative absorbance units (RAU). Linear and nonlinear regression was performed using the SigmaPlot 12.5 software, unless stated otherwise.
(§3) To measure the activity of the T. cruzi PMM enzyme, a PMM-GDP-MP biochemical assay system was used. […]

[4] = substrate: O=C[C@@H](O)[C@@H](O)[C@H](O)[C@H](O)COP(=O)(O)O; test: Km determination with the PMM-GDP-MP assay; assay type: biochemical, Trypanosoma cruzi; conditions: other: PMM substrate and cofactor, mean of three independent replicates, pH 7.5
Description: as §2, §3

B1: T. cruzi GDP-MP enzyme (Trypanosoma cruzi strain CL Brener) (protein)
chain: MSEEKKSVANSKGMRAVILVGGYGTRLRPLTLTMPKPLVPFCNKPIIVHQVEALRDAGVTEVILAVAYRSDAMRKNMDYWSKELGVSFVFSLEEEPLGTAGPLALARDILLQDDQPFFVLNADITCRFPLRELLSFHQKSGKEGTIAVTKVTDWQKYGVVVFDEATGVIDQFVEKPKNFVGDRINAGIYVFNKSVLNRIKVEKTSIETQVFPQMASAKQLCAFILEGFWMDIGVPKDYIEGVGKYLRSLNGTPKESQEVYGFGQAHKTDDFTVIGSVIIDPSAKIGKGCVIGPFATIGPGCVIGPTSRIRNSAILDESTIGKGTLVDSSIIGWKSRVGSWCRVVNNTVLGEDVEVKDELFLNGIKVLPNKSILQSYHEPEVVM
Q: Which results are given for B1?
A: Km [1]: 40.7 µM; Km [2]: 13.3 µM

B2: T. cruzi PMM enzyme (Trypanosoma cruzi strain CL Brener) (protein)
chain: MKKVLLLFDIDGTLTPPRLSQPDEVREVIRRAKSAGFTVGTVGGSDLAKQIEQLGEDVFQQFDYVFAENGLLAYKHGKEIHRQNLLKELGNERIVKFVRRALRLLSELDIPVQRGTFIEYRNGMINVCPIGRNCTQSERDEFEVYDKEHHVREKLIKELQNSFPDYGLKYSIGGQISFDVFPVGWDKSYCLRFVENDFDEIHFFGDKTHAGGNDYEIYTDKRIIGHAVKSYKDTVDEVNKLISSK
Q: For B2, which Km [3] is on record?
A: 7.8 µM

Q: And the Km [4]?
A: 48.2 µM
